Data from patent publication US20250026814A1 (UNIVERSITY OF CHICAGO, published 2025).

target: T1, S1 monomeric WT (SinoBiological) (SARS-CoV-2, UniProt P0DTC2 16-685); assay: ELISA
T1 construct: domain: S1

Row | Binder | binding result
1 | S728-2036 (antibody, V domains shown) VH: QVHLVQSGAEIRKPGASVMVSCKASGYTFTDYYIHWVRQAPGQGLEWMGWINPNSGGTNYAQKFQGRVTMTRDTSIRTAYMELSRLRSDDAAVYYCAREGISMLRGVRSWFDPWGQGTLVTVSS VL: QSALTQPASVSGSPGQSITISCTGTSSDVGSYNLVSWYQQHPGKVPKLIIYEVTKRPSGVSNRFSGSKSGNTASLTISGLQTEDEADYYCCSYAGFSAWVFGGGTKLTVL | binds
2 | S728-1981 (antibody, V domains shown) VH: QVQLVQSGAEVKKPGASVKVSCKTSGYTFTNYFMHWVRQAPGQGLEWMGIINPSGGSASYAQKFQGRITMTSDTSTSTVYMELSSLRSEDTAVYYCAREDIIVVVPARPLDYWGHGTLVTVSS VL: EIVLTQSPATLSLSPGERATLSCRASQSFSNYLAWYQQKPGQAPRLLIYDASNRATGIPARFSGSGSGTDFTLTISSLEPEDFAVYYCQQRSNWPPLLTFGGGTKVEIK | binds

target: SARS-CoV-1 RBD WT (SARS-CoV-1, UniProt P59594 306-527); assay: ELISA

Row | Binder | binding result
3 | S728-1157 (antibody, V domains shown) VH: EVQLVESGGGLVQPGGSLRLSCAASGLLVSRNYMNWVRQAPGKGLEWVSIIYSGGSTFYADSVEGRFTISRDESKNTLYLQMNSLRTDDTAVYYCARDLSDYGGIDCWGQGTLVTVSS VL: YELTQPLSVSMALGQTARISCGGDNVGSQNVHWYQQRPGQAPVLVIYRDSNRPSGIPERFSGSKSGNTATLTISRAQAGDEADYYCQVWDSSTVAFGGGTKLTVL [S728-1157, listing 1 of 2 here] | no binding
4 | S144-69 (antibody, V domains shown) VH: EVQLVQSGAEVKKPGESLKISCKGSGYSFTSYWIGWVRQMPGKGLEWMGIIYPGDSDTRYSPSFQGQVTISADKSITTAYLQWSSLKASDTAMYYCARTQTTNWFDSWGQGTLVTVSS VL: DIQMTQSPSTLSVSVGDRVTITCRASQSVSSWLAWYQQKPGKAPKLLIYDASSLESGVPSRFSGSGSGTEFTLTISSLQPDDFATYYCQQYNSFYTFGQGTKLEIK | binds
5 | S728-430 (antibody, V domains shown) VH: EVQLVESGGGLIQPGGSLRLSCAASGFTVSSNYMSWVRQAPGKGLEWVSVIYSGGSTYYADSVKGRFTISRDNSKNTLYLQMNSLRAEDTAVYYCARTPRGSRRGAFDIWGQGTMVTVSS VL: not shown [S728-430, listing 1 of 2 here] | no binding (tested: 10 ug/ml top of dilution series)
6 | S144-509 (antibody, V domains shown) VH: EVQLVQSGAEVKKPGESLKISCKGSAYTFTTYWIGWVRQMPGKGLEWMGIIYPGDSDTRYSPSFQGQVTISADKSISTAYLQWSSLKASDTAMYYCARLLLVAGPFDYWGQGTLVTVSS VL: not shown | binds
7 | S144-466 (antibody, V domains shown) VH: EVQLVQSGAEVKKPGESLKISCKGSGYRFTRYWIGWVRQMPGKGLEWMGIIYLGDSETRYSPSFQGQVTISADNSISTAYLQWSSLKASDTAMYYCARSSNWNYGDYWGQGTLVTVSS VL: DIQMTQSPSTLSASVGDRVTITCRASQSITSWLAWYQQKSGKAPKLLIYDASSLESGVPSRFSGSGSGTEFTLTISSLQPDDFATYYCQQYNSYPWTFGQGTKVEIK | binds
8 | S24-1384 (antibody, V domains shown) VH: EVQLVESGGGLVQPGGSLRLSCAVSGFTFSSYSMNWVRQAPGKGLEWVSYISSSSSIIYYADSVKGRFTISRDNAKNSLYLQMNSLRAEDTAVYYCARDFLDYSRSYSYGMDVWGQGTTVTVSS VL: SYVLTQPPSVSVAPGQTARITCGGDNIGSKNVHWYQQKPGQAPVLVVFDDSDRPSGIPERFSGSNSGNTATLTISRVEAGDEADYYCQVWDSSSDHYVVFGGGTKLTVL | binds
9 | S728-1690 (antibody, V domains shown) VH: QVQLVQSGAEVVKPGSSVKVSCKASGGTFTRYAISWVRQAPGQGPEWMGRIIPMFGIANYAQRFQGRVTMTADKSTSTAYMELSSLRSEDTAVYYCATCQYYYDSSGYGSLDYWGQGTQVTVSS VL: EIVLTQSPGTLSLSPGERVTLSCRASQSISSNFLAWYQQKPGQAPRLLISGASSRATGIPDRFSGGGSGTDFTLTISRLEPEDFAVYYCQQYHSSPRTFGQGTKVEIK | no binding (tested: 10 ug/ml top of dilution series)
10 | S564-152 (antibody, V domains shown) VH: QVQLVESGGGVVQPGRSLRLSCAASGFTFSYYGMHWVRQAPGKGLEWVAVIWYDGSNKHYADSVKGRFTISRDNSKNTLYLQMNSLRAEDTAVYYCAKNAAPYCSGGSCYGTYFDYWGQGTLVTVSS VL: DIQMTQSPSSLSASVGDRVTITCQASQDINNYLNWYQQKPGKAPKLLIYDASNLETGVPSRFSGSGSGTDFTFTISSLQPEDIATYYCQQYDNVPPHTFGQGTKLEIK | binds
11 | S728-537 (antibody, V domains shown) VH: QVQLVQSGAEVKKPGASVKVSCKTSGYTFTGFYLHWLRQAPGQGLEWMGRINPNTGDTDYAQKFQGRVTMTRDTSISTAYMELSRLRADDTAVYYCARTPGQTRQLFVGTNVLDVWGQGTMVTVSS VL: DIQMTQSPSSVSASVGDRVTITCRASQGISSWLAWYQQKPGKAPKVLIFAASSLQSGVPSRFSGSGSGTDFTLTITSLQPEDFATYFCQQTNSFPPTFGGGTKVEIK [S728-537, listing 1 of 2 here] | no binding (tested: 10 ug/ml top of dilution series)

target: T2, MERS-CoV RBD WT (MERS-CoV, UniProt K9N5Q8 367-606); assay: ELISA
T2 sequence: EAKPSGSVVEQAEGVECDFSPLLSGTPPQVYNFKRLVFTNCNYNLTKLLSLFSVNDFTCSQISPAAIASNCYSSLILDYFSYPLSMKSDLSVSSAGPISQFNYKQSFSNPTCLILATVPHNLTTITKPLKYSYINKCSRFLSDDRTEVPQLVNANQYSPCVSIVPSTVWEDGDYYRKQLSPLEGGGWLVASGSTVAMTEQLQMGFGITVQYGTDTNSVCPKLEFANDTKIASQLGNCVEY

Row | Binder | binding result
12 | S728-430 (antibody, V domains shown) VH: EVQLVESGGGLIQPGGSLRLSCAASGFTVSSNYMSWVRQAPGKGLEWVSVIYSGGSTYYADSVKGRFTISRDNSKNTLYLQMNSLRAEDTAVYYCARTPRGSRRGAFDIWGQGTMVTVSS VL: not shown [S728-430, listing 1 of 2 here] | no binding (tested: 10 ug/ml top of dilution series)
13 | S728-1690 (antibody, V domains shown) VH: QVQLVQSGAEVVKPGSSVKVSCKASGGTFTRYAISWVRQAPGQGPEWMGRIIPMFGIANYAQRFQGRVTMTADKSTSTAYMELSSLRSEDTAVYYCATCQYYYDSSGYGSLDYWGQGTQVTVSS VL: EIVLTQSPGTLSLSPGERVTLSCRASQSISSNFLAWYQQKPGQAPRLLISGASSRATGIPDRFSGGGSGTDFTLTISRLEPEDFAVYYCQQYHSSPRTFGQGTKVEIK | no binding (tested: 10 ug/ml top of dilution series)
14 | S728-537 (antibody, V domains shown) VH: QVQLVQSGAEVKKPGASVKVSCKTSGYTFTGFYLHWLRQAPGQGLEWMGRINPNTGDTDYAQKFQGRVTMTRDTSISTAYMELSRLRADDTAVYYCARTPGQTRQLFVGTNVLDVWGQGTMVTVSS VL: DIQMTQSPSSVSASVGDRVTITCRASQGISSWLAWYQQKPGKAPKVLIFAASSLQSGVPSRFSGSGSGTDFTLTITSLQPEDFATYFCQQTNSFPPTFGGGTKVEIK [S728-537, listing 1 of 2 here] | no binding (tested: 10 ug/ml top of dilution series)

target: T3, SARS-CoV-2 spike receptor-binding domain (RBD), WT (SARS-CoV-2, UniProt P0DTC2 319-541); assay: epitope specificity column of the table of RBD-reactive mAbs (ELISA)
T3 construct: domain: RBD

Row | Binder | binding result
15 | S728-1157 (antibody, V domains shown) VH: EVQLVESGGGLVQPGGSLRLSCAASGLLVSRNYMNWVRQAPGKGLEWVSIIYSGGSTFYADSVEGRFTISRDESKNTLYLQMNSLRTDDTAVYYCARDLSDYGGIDCWGQGTLVTVSS VL: YELTQPLSVSMALGQTARISCGGDNVGSQNVHWYQQRPGQAPVLVIYRDSNRPSGIPERFSGSKSGNTATLTISRAQAGDEADYYCQVWDSSTVAFGGGTKLTVL [S728-1157, listing 2 of 2 here] | binds
16 | S728-430 (antibody, V domains shown) VH: EVQLVESGGGLIQPGGSLRLSCAASGFTVSSNYMSWVRQAPGKGLEWVSVIYSGGSTYYADSVKGRFTISRDNSKNTLYLQMNSLRAEDTAVYYCARTPRGSRRGAFDIWGQGTMVTVSS VL: not shown [S728-430, listing 2 of 2 here] | binds
17 | S728-1261 (antibody, V domains shown) VH: QVQLQESGPGLVKPSGTLSLTCAVSGGSISNNNWWIWVRQPPGKGLEWIGEIHHSGSTDYNPSLKSRVTISIDKSKNQFSLRLSSVTAADTAVYYCARKPEPYYYYYYMDVWGKGTTVTVSS VL: ETVLTQSPGTLSLSPGERATLSCRASQSVSSSYITWYQQKPGQAPRLLIYGASSRATGIPDRFSGSGSGTDFTLTISRLEPEDFAVYYCQQYRSPWGLTFGPGTKVDIK | binds
18 | S728-369 (antibody, V domains shown) VH: QVQLQESGPGLVKPSQTLSLTCSVSGGSISSGGYYWSWIRQHPGKGLEWIGYMYYSGSTYYNPSLKSRVTIFVDTSKNHFSLKLTSVTAADTAVYYCARDSYENYYGSGSLEPNYHHYNMDVWGQGTTVTVSS VL: DVQMTQSPSTLSASIGDRVTITCRASQSISGWLAWYQQRPGKAPKLLIYRASSLDFGVPSRFSGNGSGTEFTLTISSLQPDDFATYYCQQYHTYRTFGQGTKVEVK | binds
19 | S728-209 (antibody, V domains shown) VH: QITLKESGPTLVKPTQTLTLTCTLSGFSLSTSGVSVGWIRQPPGKALEWLAVIFWDDDKRYNPSLKSRLTIAKDTSKSQVVLTMTNLDPVDTGTYYCVSGSSYYYYYYMDVWGKGTTVTVSS VL: DIQMTQSPSSVSASIGDRVTITCRASQDISTWLAWYQQKPGRAPNLLIYGASSLQSGVPSRFSGSGSGTDFTLTISSLQPEDFATYYCQQATSFPLTFGGGTKVEIK | binds
20 | S728-537 (antibody, V domains shown) VH: QVQLVQSGAEVKKPGASVKVSCKTSGYTFTGFYLHWLRQAPGQGLEWMGRINPNTGDTDYAQKFQGRVTMTRDTSISTAYMELSRLRADDTAVYYCARTPGQTRQLFVGTNVLDVWGQGTMVTVSS VL: DIQMTQSPSSVSASVGDRVTITCRASQGISSWLAWYQQKPGKAPKVLIFAASSLQSGVPSRFSGSGSGTDFTLTITSLQPEDFATYFCQQTNSFPPTFGGGTKVEIK [S728-537, listing 2 of 2 here] | binds
